Laboratory results published in publication PMC11754754, “Structure and mechanism of biosynthesis of Streptococcus mutans cell wall polysaccharide” (Nature Communications, 2025).

How the values were obtained:
[1] = system: CC(C)=CCC/C(C)=C/CC/C(C)=C/CC/C(C)=C\CC/C(C)=C\CC/C(C)=C\CC/C(C)=C\CC/C(C)=C\CC/C(C)=C\CC/C(C)=C\CC/C(C)=C\COP(=O)(O)O; assay: radiometric [3H]Glc-lipid formation, E. coli membrane fraction; format: biochemical, Streptococcus mutans; details: co-substrate UDP-[3H]Glc, Und-P dispersed in CHAPS, 20 mM MgCl2, pH 7.4, 37 °C
Excerpt: (§1) radiometric [3H]Glc-lipid formation, E. coli membrane fraction on SccN

[2] = system: O=c1ccn([C@@H]2O[C@H](CO[P@@](=O)(O)O[P@@](=O)(O)O[C@H]3O[C@H](CO)[C@@H](O)[C@H](O)[C@H]3O)[C@@H](O)[C@H]2O)c(=O)[nH]1; assay: as above; format: biochemical, Streptococcus mutans; details: labelled compound (UDP-[3H]Glc), co-substrate Und-P in CHAPS, 20 mM MgCl2, pH 7.4, 37 °C
Excerpt: as §1

[3] = system: CC(C)=CCC/C(C)=C/CC/C(C)=C/CC/C(C)=C\CC/C(C)=C\CC/C(C)=C\CC/C(C)=C\CC/C(C)=C\CC/C(C)=C\CC/C(C)=C\CC/C(C)=C\COP(=O)(O)O; assay: cells, lysate or membranes; details: co-substrate UDP-[3H]Glc, Und-P dispersed in CHAPS, 20 mM MgCl2, pH 7.4, 37 °C
Excerpt: (§2) radiometric [3H]Glc-lipid formation, E. coli membrane fraction on SccP

[4] = system: O=c1ccn([C@@H]2O[C@H](CO[P@@](=O)(O)O[P@@](=O)(O)O[C@H]3O[C@H](CO)[C@@H](O)[C@H](O)[C@H]3O)[C@@H](O)[C@H]2O)c(=O)[nH]1; assay: cells, lysate or membranes; details: labelled compound (UDP-[3H]Glc), co-substrate Und-P in CHAPS, 20 mM MgCl2, pH 7.4, 37 °C
Excerpt: as §2

| Substance | Km [1] | Vmax [1] | Km [2] | Vmax [2] | Km [3] | Vmax [3] | Km [4] | Vmax [4] |
| --- | --- | --- | --- | --- | --- | --- | --- | --- |
| SccN (Streptococcus mutans UA159) | 5.85 µM | 5.42 µmol/min/mg | 1.61 µM | 3.16 µmol/min/mg |  |  |  |  |
| SccP (Streptococcus mutans UA159) |  |  |  |  | 2.56 µM | 0.96 µmol/min/mg | 2.50 µM | 0.93 µmol/min/mg |
